Among the data in paper PMC3431306 (2012) are Kd values, retold here.

Experiment [1] has as its target CPSF6_(313–327) peptide (cleavage and polyadenylation specific factor 6, residues 313–327) (UniProt Q16630-2 313-327). The experiment is described as follows: ITC.
The target in experiment [2] is CPSF6_(313–327) peptide (cleavage and polyadenylation specific factor 6, residues 313–327) (UniProt Q16630-2 313-327, N-terminal His tag omitted; strain not given, isolate Petaluma taken; CA residues 1-139 by alignment to HIV-1 CA 1-146). The experiment is described as follows: ITC.

B1: HIV-2 CA N-terminal domain (CA^N) (domain or fragment)
chain: not shown
In turn, B1 registered a dissociation constant Kd in experiment [1] of 350 µM.

B2: FIV CA N-terminal domain (CA^N) (domain or fragment)
chain: PIQTVNGVPQYVALDPKMVSIFMEKAREGLGGEEVQLWFTAFSANLTPTDMATLIMAAPGCAADKEILDESLKQLTAEYDRTHPPDAPRPLPYFTAAEIMGIGLTQEQQAEARFAPARMQCRAWYLEALGKLAAIKAKS
In turn, B2 yielded a dissociation constant Kd in experiment [2] of 242 µM.

One may read the Kd as the equilibrium constant for the complex coming apart. Read a low Kd as higher affinity.
